{
  "source": "paper PMC4379586",
  "key": {"[1]": {"test_system": "MDM2 C-terminal RING domain (GST fusion) (human)", "test": "intrinsic protein fluorescence titration", "details": "ITC: 10 mM Hepes pH 7.2, 150 mM NaCl, temperature not stated; fluorescence titration (ex 280 nm, em 335 nm): buffer and temperature not stated"}, "[2]": {"test_system": "MDM2 C-terminal RING domain (GST fusion) (human)", "test": "ITC", "details": "ITC: 10 mM Hepes pH 7.2, 150 mM NaCl, temperature not stated; fluorescence titration (ex 280 nm, em 335 nm): buffer and temperature not stated"}},
  "data": [
    {"substance": "XIAP IRES RNA (small, RNP core binding site)", "values": [
      {"measurement": "Kd", "setting": "[1]", "result": 0.68, "unit": "µM"},
      {"measurement": "Kd", "setting": "[2]", "result": 0.7, "unit": "µM"}
    ]}
  ]
}
